Laboratory results published in patent US20210403595 (published 2021).
Where two headings read alike, the source gives them in different places. Blank lines part the entries; values can stand above or below the binder they belong to.

Tests used:
[1] = molecular target: human CD3 on Jurkat cells (human); assay: FACS
[2] = molecular target: human CD3 epsilon/delta heterodimer, Fc-tagged (human); assay: SPR, 25C antibody-capture
[3] = molecular target: human CD3 epsilon/delta heterodimer, Fc-tagged (human); assay: SPR, 25C antigen-capture
[4] = molecular target: human PSMA, N-terminal 6xHis (soluble) (human); assay: SPR, 37C
[5] = molecular target: human PSMA, N-terminal 6xHis (soluble) (human); assay: SPR, 37C; remark: listed apart in the source
[6] = molecular target: human CD3 on Jurkat cells (human); assay: FACS; remark: listed apart in the source
[7] = molecular target: human CD3 epsilon/delta heterodimer, Fc-tagged (human); assay: SPR, 25C antibody-capture; remark: listed apart in the source
[8] = molecular target: human CD3 epsilon/delta heterodimer, Fc-tagged (human); assay: SPR, 25C antigen-capture; remark: listed apart in the source
[9] = molecular target: human CD3 on Jurkat cells (human); assay: FACS; remark: listed apart in the source
[10] = molecular target: human CD3 on Jurkat cells (human); assay: FACS; remark: listed apart in the source
[11] = molecular target: human CD3 epsilon/delta heterodimer, Fc-tagged (human); assay: SPR, 25C antigen-capture; remark: listed apart in the source
[12] = molecular target: human CD3 on Jurkat cells (human); assay: FACS; remark: listed apart in the source
[13] = molecular target: human CD3 epsilon/delta heterodimer, Fc-tagged (human); assay: SPR, 25C antibody-capture; remark: listed apart in the source
[14] = molecular target: T1, cynomolgus CD3 on T cells (cynomolgus monkey); assay: FACS
T1 chain: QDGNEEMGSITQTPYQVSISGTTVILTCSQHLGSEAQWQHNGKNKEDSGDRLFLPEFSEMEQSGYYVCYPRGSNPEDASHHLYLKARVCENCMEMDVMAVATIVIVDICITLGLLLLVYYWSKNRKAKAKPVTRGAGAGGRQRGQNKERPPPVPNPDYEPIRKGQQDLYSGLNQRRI

[15] = molecular target: human CD3 epsilon/delta heterodimer, Fc-tagged (human); assay: SPR, 25C antibody-capture; remark: listed apart in the source
[16] = molecular target: human CD3 on Jurkat cells (human); assay: FACS; remark: listed apart in the source
[17] = molecular target: T1, cynomolgus CD3 on T cells; assay: FACS
[18] = molecular target: human CD3 epsilon/delta heterodimer, Fc-tagged (human); assay: SPR, 37C

Chain of human CD3 on Jurkat cells (human) (chain, as listed by the source, chain 1 of 2): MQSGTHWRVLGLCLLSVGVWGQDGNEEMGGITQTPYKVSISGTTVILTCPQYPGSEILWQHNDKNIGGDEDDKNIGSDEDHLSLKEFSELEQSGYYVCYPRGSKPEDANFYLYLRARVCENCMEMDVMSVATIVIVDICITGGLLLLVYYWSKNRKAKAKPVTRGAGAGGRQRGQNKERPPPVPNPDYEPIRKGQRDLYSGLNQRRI
Chain of human CD3 on Jurkat cells (human) (chain, as listed by the source, chain 2 of 2): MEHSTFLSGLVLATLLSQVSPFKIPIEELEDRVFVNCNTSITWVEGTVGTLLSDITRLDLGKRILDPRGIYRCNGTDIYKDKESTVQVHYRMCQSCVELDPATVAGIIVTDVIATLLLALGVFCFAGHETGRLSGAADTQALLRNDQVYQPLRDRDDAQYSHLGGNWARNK
Chain of human CD3 epsilon/delta heterodimer, Fc-tagged (human) (chain, as listed by the source mutant, chain 1 of 2): as the sequence (chain, as listed by the source, chain 1 of 2) above
Chain of human CD3 epsilon/delta heterodimer, Fc-tagged (human) (chain, as listed by the source mutant, chain 2 of 2): as the sequence (chain, as listed by the source, chain 2 of 2) above
Chain of human PSMA, N-terminal 6xHis (soluble) (human) (A4UU12 whole entry): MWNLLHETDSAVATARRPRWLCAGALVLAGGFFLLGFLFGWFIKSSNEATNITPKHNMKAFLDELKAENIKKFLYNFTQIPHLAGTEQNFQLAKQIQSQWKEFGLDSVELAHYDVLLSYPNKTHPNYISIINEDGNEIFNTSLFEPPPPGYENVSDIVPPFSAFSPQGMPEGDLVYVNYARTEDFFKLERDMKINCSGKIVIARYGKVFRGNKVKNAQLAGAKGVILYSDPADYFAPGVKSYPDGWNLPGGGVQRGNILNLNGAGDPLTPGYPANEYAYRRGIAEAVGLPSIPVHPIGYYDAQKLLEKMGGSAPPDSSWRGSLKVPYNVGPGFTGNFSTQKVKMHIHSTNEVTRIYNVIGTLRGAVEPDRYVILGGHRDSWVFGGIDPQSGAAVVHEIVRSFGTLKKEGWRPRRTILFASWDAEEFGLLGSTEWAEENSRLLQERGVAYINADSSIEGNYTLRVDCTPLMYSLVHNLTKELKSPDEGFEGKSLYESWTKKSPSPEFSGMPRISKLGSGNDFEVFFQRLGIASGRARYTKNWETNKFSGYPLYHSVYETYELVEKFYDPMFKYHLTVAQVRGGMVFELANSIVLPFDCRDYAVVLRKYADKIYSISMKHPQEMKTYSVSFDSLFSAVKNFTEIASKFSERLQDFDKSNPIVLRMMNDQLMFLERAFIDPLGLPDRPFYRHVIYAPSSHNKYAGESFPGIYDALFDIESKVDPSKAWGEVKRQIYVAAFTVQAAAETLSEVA

- binding result [1]: no binding
- binding result [2]: no binding
B1: H1H5782P (antibody, V domains shown)
VH: EVQLVESGGGLVQPGRSLRLSCAASGFTFDDYAMHWVRQAPGKGLEWVSGISWNSGSKDYADSVKGRFTISRDNTRNSLFLQMNSLRTEDTALYYCAKDKSGYGSFYYGMDVWGQGTTVTVSS
VL: not shown

- Kd [3]: 0.0215 nM
B2: H2M3547N (antibody, V domains shown)
VH: EAQLVESGGGLVQPGRSLRLSCTTSGFTFDDYTMHWVRQAPGKGLEWISDISWNGGTKGYADSVKGRFTISRDNAKNSLYLQMDSLRGEDTALYYCVKDKSGYGHFYFGLDVWGQGTTVTVSS
VL: DIQMTQSPSSLTASVGDRVTFTCRASQSISRHLSWYQQKPGKAPKLLIYAASSLESGVPSRFSGSGSGTDFTLTISSLHPEDFATYYCQQSYSNPPITFGQGTRLEIK

- Kd [4]: 1.76 nM
B4: H2M11899N (antibody, V domains shown)
VH: QVQLVESGGGVVQPGRSLRLSCAASGFTFSSYDIHWVRQAPGKGLEWVSVIWYDGSNKYYADSVKGRFTISRDNSKNTLYLQMNSLRAEDTAVYYCARTVAARNYDYYVMDVWGQGTTVTVSS
VL: DIQMTQSPSSLSASVGDSVTITCRASQSINNYLNWYQQKPGKAPKLLIYTASSLLSGVPSRFSGSGSGTDFTLTISGLHPEDFATYFCQQSFSTPPITFGQGTRLDIK

- binding result [9]: no binding
B8: H2M2689N (antibody, V domains shown)
VH: QVQLVESGGGVVQPGRSLRLSCAASGFTFSRKGMHWVRQAPVKGLEWVAVISYDGSNKYYADSVKGRFTISRDNSKNTLYLQMNSLTAEDTAVYYCAKEGGHDYGGTFDYWGQGTLVTVSS
VL: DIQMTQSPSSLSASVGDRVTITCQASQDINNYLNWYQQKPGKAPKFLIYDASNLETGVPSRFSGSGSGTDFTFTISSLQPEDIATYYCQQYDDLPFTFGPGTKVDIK

- binding result [10]: no binding
- binding result [11]: no binding
B9: H1H7279P (antibody, V domains shown)
VH: EVQLVESGGGLVKPGGSLRISCAASGFSFINAWMNWVRQAPGKGLEWVGRIKSISDGGTTDYAASVKGRFTISREDSKNMLFLEMNSLKTEDTAVFYCTTEVARTPNYWGRGTLVTVSS
VL: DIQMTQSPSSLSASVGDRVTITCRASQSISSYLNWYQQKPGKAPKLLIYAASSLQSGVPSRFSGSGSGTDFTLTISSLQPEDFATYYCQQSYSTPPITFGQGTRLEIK

- Kd [3]: 0.14 nM
B12: H2M2776N (antibody)
chain 1: QVQLVESGGGVVQPGRSLRLSCAASGFTFRSFGMHWVRQAPGRGLEWVAMIYFDGKNKYYADSVRGRFTISRDNSKNTLYLEMSSLRAEDTAVYFCARGPGYNWLDPWGQGTLVTVSS
chain 2: EIVMTQSPATLSVSPGERVILSCRASQSISRNLAWYQXKPGQAPRLLIYGATTRATGVPARFSGSGSGTEFTLTISSLQSEDFAVFYCQQYNNRPLTFGGGTEVEIK
modifications: not fully specified; listing feature

- binding result [15]: no binding
B13: H1xH7221G3 (antibody, V domains shown)
VH: EVQLVESGGGLVQPGRSLRLSCAASGFTFDDYSMHWVRQAPGKGLEWVSGISWNSGSIGYADSVKGRFTISRDNAKNSLYLQMNSLRAEDTALYYCAKDGSGYGYFYYYGMDVWGQGTTVTVSS
VL: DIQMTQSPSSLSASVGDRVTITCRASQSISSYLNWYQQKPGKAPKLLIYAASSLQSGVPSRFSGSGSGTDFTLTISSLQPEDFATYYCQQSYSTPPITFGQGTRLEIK

- binding result [16]: no binding
- binding result [17]: no binding
- binding result [18]: no binding
B14: BSPSMA/CD3-200 CD3 arm (antibody, V domains shown)
VH: EVQLVESGGGLVQPGRSLRLSCAASGFTFDDYAMHWVRQAPGKGLEWVSGISWNSGSIGYADSVKGRFTISRDNAKNSLYLQMNSLRAEDTALYYCAKDGSGYGYFYYYGMDVWGQGTTVTVSS
VL: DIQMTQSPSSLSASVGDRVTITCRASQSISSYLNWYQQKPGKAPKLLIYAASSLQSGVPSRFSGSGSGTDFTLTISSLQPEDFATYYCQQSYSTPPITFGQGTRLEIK

- binding result [16]: no binding
- binding result [17]: no binding
- binding result [18]: no binding
B15: BSPSMA/CD3-300 CD3 arm (antibody, V domains shown)
VH: EVQLVESGGGLVQPGRSLRLSCAASGFTFDDYSMHWVRQAPGKGLEWVSGISWNSGSIGYADSVKGRFTISRDNAKNSLYLQMNSLRAEDTALYYCAKDGSGYGYFYYYGMDVWGQGTTVTVSS
VL: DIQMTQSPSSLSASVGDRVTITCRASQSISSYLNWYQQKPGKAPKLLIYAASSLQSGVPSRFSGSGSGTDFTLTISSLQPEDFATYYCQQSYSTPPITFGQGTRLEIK

- binding result [15]: no binding
B16: H1xH7221G5 (antibody, V domains shown)
VH: EVQLVESGGGLVQPGRSLRLSCAASGFTFDDYSMHWVRQAPGKGLEWVSGISWNSGSIGYADSVKGRFTISRDNAKNSLYLQMNSLRAEDTALYYCAKDGSGYGKFYYYGMDVWGQGTTVTVSS
VL: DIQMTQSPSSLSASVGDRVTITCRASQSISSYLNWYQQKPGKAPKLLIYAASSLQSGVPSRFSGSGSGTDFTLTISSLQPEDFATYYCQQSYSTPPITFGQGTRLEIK

- binding result [16]: no binding
- binding result [17]: no binding
- binding result [18]: no binding
B18: BSPSMA/CD3-400 CD3 arm (antibody, V domains shown)
VH: EVQLVESGGGLVQPGRSLRLSCAASGFTFDDYAMHWVRQAPGKGLEWVSGISWNSGSIGYADSVKGRFTISRDNAKNSLYLQMNSLRAEDTALYYCAKDGSGYGKFYYYGMDVWGQGTTVTVSS
VL: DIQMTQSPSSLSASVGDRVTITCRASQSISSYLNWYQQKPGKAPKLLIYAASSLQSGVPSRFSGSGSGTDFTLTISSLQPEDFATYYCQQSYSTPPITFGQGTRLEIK

- binding result [2]: no binding
B20: H1H5752P (antibody, V domains shown)
VH: QVQLVESGGGVVQPGRSLRPSCAASGFSFRDYGMHWVRQAPGKGLEWMAHIWYNGKNKYYADSVKGRFTISRDNSKNTLYLQMNSLRPEDTAVYYCARDGVSARGTPFDYWGQGTLVTVSS
VL: ETTLTQSPAFMSAAPGDKVSISCIASQYIDDDVNWYQQKPGETAIFIIQEASTLVPGISPRFSGSGYGTHFTLTINNIDSEDAAFYFCLQHDNFPYTFGQGTKLEIK

The next lines start with the binder.

B3: H1M11453N (antibody, V domains shown)
VH: EFQVVESGGGLVKPGGSLRLSCVVSGFTFSNYNMNWVRQAPAKGLEWVSSISTGSSDIYYADSVKGRFTISRDNAKNSLYLQMNSLRVEDTAVYYCARDIIGTTRDWGQGTLVTVSS
VL: DIQMTQSPSSLSASVGDSVTITCRASQSINNYLNWYQQKPGKAPKLLIYTASSLLSGVPSRFSGSGSGTDFTLTISGLHPEDFATYFCQQSFSTPPITFGQGTRLDIK
- Kd [4]: 1.93 nM

B5: H1H11835P2 (antibody, V domains shown)
VH: EVQLVESGGGLVQSGGSLRLSCEASGFTFSNYWMTWIRQGPGKGLEWVANIKPDGTENYYVDSVKGRFTISRDNARNSLYLQMTSLKAEDTAVYYCGRMIQFVINIWGQGTLVTVSS
VL: DIQMTQSPSSLSASVGDSVTITCRASQSINNYLNWYQQKPGKAPKLLIYTASSLLSGVPSRFSGSGSGTDFTLTISGLHPEDFATYFCQQSFSTPPITFGQGTRLDIK
- Kd [5]: 14 nM

B6: H1H7194P (antibody, V domains shown)
VH: EVQLVESGGGLVQPGRSLRLSCAASGFTFGDYTMHWVRQAPGKGLEWVSDISWNSGSKDYADSVKGRFTISRDNAKNSLYLQMNSLRTEDTAFYYCAKDSRGYGLYYHLGLDVWGQGTTVTVSS
VL: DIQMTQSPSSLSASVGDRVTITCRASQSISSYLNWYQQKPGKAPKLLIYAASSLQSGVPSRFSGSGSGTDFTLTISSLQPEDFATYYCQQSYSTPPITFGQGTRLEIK
- EC50 [6]: 1.5 nM
- Kd [7]: 13 nM

B7: H1H7250P (antibody, V domains shown)
VH: QVQLVESGGGLVQPGRSLRLSCAASGFTFDDYTMHWVRQGPGKGLEWVSDIGWNSNTKGYADSVKGRFTISRDNAKNSLYLQMNSLRPEDTALYFCVKDKSGYGKFFIGLDVWGQGTMVTVSS
VL: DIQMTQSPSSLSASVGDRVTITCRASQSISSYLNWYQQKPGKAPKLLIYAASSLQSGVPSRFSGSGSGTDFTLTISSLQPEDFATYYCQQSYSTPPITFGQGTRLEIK
- Kd [8]: 0.82 nM

B10: H2M2705N (antibody, V domains shown)
VH: QVQLVESGGGVVQPGRSLRLACVASGFTFRSYGMHWVRQAPGKGLQWVAMIYYDGKNKYYADSVRGRFTISRDNSKNTLYLQMNNLRVEDTAMYFCARGPGYNWLDPWGQGTLVTVSS
VL: EIVMTQSPATLSVSPGERATLSCRASQRISSNLAWYQQKPGQAPRLLIYGASTRATGSPARFSGSGSGTDFTLTISSLQSEDVAVYYCQQHHNWPLTFGGGTKVEIK
- EC50 [12]: 0.296 nM
- Kd [3]: 0.14 nM
- Kd [13]: 13.7 nM

B11: H1H2690N (antibody, V domains shown)
VH: EVQLVESGGGLVQPGRSLRLSCAASGFTFDDYTMHWVRQAPGKGLEWVSGISWNSGSIGYADSVKGRFTISRDNAKKSLYLQMNSLRAEDTALYYCAKDNSGYGHYYYGMDVWGQGTTVTVAS
VL: EIVMTQSPATLSVSPGERATLSCRASQSVSSNLAWYQQKPGQAPRLLIYGASTRATGIPARFSGSGSGTEFTLTISSLQSEDFAVYYCQHYINWPLTFGGGTKVEIK
- EC50 [14]: 5.66 nM

B17: H1H7221P (antibody, V domains shown)
VH: EVQLVESGGGLVQPGRSLRLSCVASGFTFDDYSMHWVRQAPGKGLEWVSGISWNSGSKDYADSVKGRFTISRDNAKNSLYLQMNSLRAEDTALYYCAKYGSGYGKFYHYGLDVWGQGTTVTVSS
VL: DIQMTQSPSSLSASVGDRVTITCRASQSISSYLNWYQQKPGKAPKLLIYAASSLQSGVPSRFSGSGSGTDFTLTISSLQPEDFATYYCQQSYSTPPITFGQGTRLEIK
- EC50 [6]: 1.4 nM

B19: H1H7232P (antibody, V domains shown)
VH: EVQLVESGGGLVHPGRSLRLSCAASGFTFDDYTMHWVRQAPGKGLEWVSDISWNSGSRGYADSVKGRFTISRDNAENSLYLQMNSLRAEDTALYYCAKDKSGYGHYYYYAMDVWGQGTTVTVSS
VL: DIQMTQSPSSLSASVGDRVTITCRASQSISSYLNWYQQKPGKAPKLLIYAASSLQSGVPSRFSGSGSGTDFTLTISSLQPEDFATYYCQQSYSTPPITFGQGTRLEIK
- EC50 [6]: 1.5 nM
- Kd [8]: 10 nM
- Kd [7]: 220 nM
